Test results reported in publication PMC12820099, “CTCF couples long-range loop extrusion and diffusion to mediate a diverse Igκ repertoire” (Nature Communications, 2025).

Target: T1, SMC3 (mouse (endogenous in v-Abl pro-B cells), UniProt Q9CW03 1-1217)
T1 construct: SMC3, mouse, endogenous; precipitated with an SMC3 antibody from the solubilised chromatin fraction; Bait of the IP; it sits in the cohesin complex, so partners may touch other cohesin subunits rather than SMC3 itself; also called cohesin (SMC3 immunoprecipitate); source: endogenous, chromatin fraction of G1 arrested v-Abl pro-B cells (WT and CTCF-Nm)
T1 sequence (Q9CW03 whole entry): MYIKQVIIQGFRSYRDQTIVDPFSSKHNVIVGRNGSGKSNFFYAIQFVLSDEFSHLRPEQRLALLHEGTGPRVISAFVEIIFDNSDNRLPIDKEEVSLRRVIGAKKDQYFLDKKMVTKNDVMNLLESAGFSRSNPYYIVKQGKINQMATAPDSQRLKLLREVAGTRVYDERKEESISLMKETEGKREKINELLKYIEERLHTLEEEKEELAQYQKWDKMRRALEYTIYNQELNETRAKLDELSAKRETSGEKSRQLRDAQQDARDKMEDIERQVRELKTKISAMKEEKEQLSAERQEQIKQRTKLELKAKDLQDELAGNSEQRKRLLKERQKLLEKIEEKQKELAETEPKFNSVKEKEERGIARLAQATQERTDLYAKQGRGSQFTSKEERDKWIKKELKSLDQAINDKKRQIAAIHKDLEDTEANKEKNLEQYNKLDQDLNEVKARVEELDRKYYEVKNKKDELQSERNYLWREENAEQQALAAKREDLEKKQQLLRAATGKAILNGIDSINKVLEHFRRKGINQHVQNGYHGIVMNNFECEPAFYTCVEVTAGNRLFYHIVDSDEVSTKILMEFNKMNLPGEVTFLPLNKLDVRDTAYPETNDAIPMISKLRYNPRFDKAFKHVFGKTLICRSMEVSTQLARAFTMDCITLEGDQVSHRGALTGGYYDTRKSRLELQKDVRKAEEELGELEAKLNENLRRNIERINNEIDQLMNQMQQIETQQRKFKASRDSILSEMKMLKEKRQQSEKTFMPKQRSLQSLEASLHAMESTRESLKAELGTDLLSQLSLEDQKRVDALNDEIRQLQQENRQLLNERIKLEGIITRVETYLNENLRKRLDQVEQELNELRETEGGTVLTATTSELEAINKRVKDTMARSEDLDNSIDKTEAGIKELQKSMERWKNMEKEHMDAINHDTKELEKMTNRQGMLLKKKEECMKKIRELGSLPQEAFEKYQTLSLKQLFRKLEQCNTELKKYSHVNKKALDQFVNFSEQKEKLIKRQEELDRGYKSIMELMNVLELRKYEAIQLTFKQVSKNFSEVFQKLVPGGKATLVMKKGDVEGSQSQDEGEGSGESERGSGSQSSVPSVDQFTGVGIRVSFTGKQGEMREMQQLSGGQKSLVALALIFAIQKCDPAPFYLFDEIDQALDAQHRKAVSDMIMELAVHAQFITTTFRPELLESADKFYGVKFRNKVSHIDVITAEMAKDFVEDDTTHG
Assay: affinity purification with mass spectrometry; SMC3 antibody IP (Protein A beads, overnight, 100 mM NaCl) from Benzonase-solubilised chromatin fraction of G1 arrested WT and CTCF-Nm v-Abl pro-B cells; label-free qMS, protein intensities normalised to chromatin-bound SMC3; IgG isotype control
Conditions: partners not purified

fold reduction of the interaction against WT CTCF [fold]	fold increase of the interaction in CTCF-Nm cells against WT cells [fold]	Binder
3		CTCF(Y226A/F228A) (natural protein, mouse (endogenous in v-Abl pro-B cells), UniProt Q61164 1-736, looked up, CTCF, mouse, endogenous, with the Y226A/F228A mutation of the N-terminal YDF motif; also called CTCF-Nm; source: endogenous locus, homozygous CRISPR/Cas9 knock-in, chromatin fraction of G1 arrested CTCF-Nm v-Abl pro-B cells) MEGEAVEAIVEESETFIKGKERKTYQRRREGGQEEDACHLPQNQTDGGEVVQDVNSSVQMVMMEQLDPTLLQMKTEVMEGTVAPEAEAAVDDTQIITLQVVNMEEQPINIGELQLVQVPVPVTVPVATTSVEELQGAYENEVSKEGLAESEPMICHTLPLPEGFQVVKVGANGEVETLEQGELPPQEDSSWQKDPDYQPPAKKTKKTKKSKLRYTEEGKDVDVSVADAEEEQQEGLLSEVNAEKVVGNMKPPKPTKIKKKGVKKTFQCELCSYTCPRRSNLDRHMKSHTDERPHKCHLCGRAFRTVTLLRNHLNTHTGTRPHKCPDCDMAFVTSGELVRHRRYKHTHEKPFKCSMCDYASVEVSKLKRHIRSHTGERPFQCSLCSYASRDTYKLKRHMRTHSGEKPYECYICHARFTQSGTMKMHILQKHTENVAKFHCPHCDTVIARKSDLGVHLRKQHSYIEQGKKCRYCDAVFHERYALIQHQKSHKNEKRFKCDQCDYACRQERHMIMHKRTHTGEKPYACSHCDKTFRQKQLLDMHFKRYHDPNFVPAAFVCSKCGKTFTRRNTMARHADNCAGPDGVEGENGGETKKSKRGRKRKMRSKKEDSSDSEENAEPDLDDNEEEEEPAVEIEPEPEPQPQPPPPPQPVAPAPPPAKKRRGRPPGRTNQPKQNQPTAIIQVEDQNTGAIENIIVEVKKEPDAEPAEGEEEEAQAATTDAPNGDLTPEMILSMMDR
	1.9	WAPL (natural protein, mouse (endogenous in v-Abl pro-B cells), UniProt Q65Z40 1-1200, looked up, WAPL, mouse, endogenous, untagged in the WT and CTCF-Nm lines used for the IP; source: endogenous, chromatin fraction of G1 arrested v-Abl pro-B cells (WT and CTCF-Nm)) MTSRFGKTYSRKGGNGSSKFDEVFSNKRTTLSTKWGETTFMAKLGQKRPNFKPDIQEIPKKPKVEEEDTGDPFGFDSDDESLPVSSKNLAQGKGSSYSESSEAAQLEEVTSVFEANSKCSHVVGEDSFASDRCLLVEDTLIGKEKSISRIPEDNANKSSCTKLLTSDKVENFSEEHEKNSHHFHKNAEDSTKKPNAETAVASEYKADETKETNDTWNSQSGKRTESPSESCPVKGSVRTGLYEWDNDFEDIRSEDCILSLDNESLLEMKDEDLKNRIGGLENLNETFEEDIIQSVLRPSNCRTYCRANKARSSQGASNFDKLMDGTSQSLAKANSESSKDGLNQAKKGSASCGTSFRGTVGRTRDYTVLHPSCLSVCNVTIQDTMERSMDEFTASTPADLGEAGRLRKKADIATSKTTTRFRPSNTKSKKDVKLEFFGFEDHDETGGDEGGSGSSNYKIKYFGFDDLSESEDDDDDDCQVERKKDKKRTKTAPSPSQQPPPESSDNSQDSQSSTNNAENLDFTEDLPGVPESVKKPISKQGDKSKENTRKIFSGPKRSPTKAVYNARHWNHPDSEELPGPPIAKPQRVTVRLSSKEPNQKDDGVFKAPAPPLKVIKTVTIPTQPYQEIVTALKCRKEDKELYTVVQHVKHFNDVVEFGENQEFTDDIEYLLSGLKSTQPLNTRCLSVISLATKCAMPSFRMHLRAHGMVAMVFKTLDDSQHHQNLSLCTAALMYILSRDRLNMDLDRASLDLMIRLLELEQDASSAKLLNEKDMNKIKEKIRRLCETVHNKHLDLENITTGHLAMETLLSLTSKRAGDWFKEELRLLGGLDHIVDKVKECVDHLSRDDEDEEKLVASLWGAERCLRVLESVTVHNPENQSYLIAYKDSQLIISSAKALQHCEDLIQQYNRAENSICVADSNPLPYQNVTNHVGKAVEDCMRAIIGVLLNLTNDNEWGSTKTGEQEGLIGTAMNCVLQVPKYLPQEQRFDIRVLGLGLLINLVEYSARNRHCLVNMQTSCSFDSSFSSGEGDHSLRLAGQVHAVQALVQLFLERERAAQLAESKTDELIKDAPTTQHDKSGEWQETSGEIQWVSTEKTDGAEEKQKKEEEDEELDLNKALQHAGKHMEDCIVASYTALLLGCLCQESPINVTTVREYLPEGDFSIMTEMLKKFLSFMNLTCAVGTTGQKSISRVIEYLEHC
